Measurements: patent US20180127487A1 (Sanofi, published 2018)
Substitutions are numbered along the chain they refer to. Numbers in names are those of the source. Where two headings read alike, the source gives them in different places.

Experiments:
[1] = target: T1, recombinant mouse FcRn (mouse, UniProt Q61559 22-297; P01887 21-119); experiment: SPR, mouse FcRn immobilised; relative to mAb2
T1 sequence 1: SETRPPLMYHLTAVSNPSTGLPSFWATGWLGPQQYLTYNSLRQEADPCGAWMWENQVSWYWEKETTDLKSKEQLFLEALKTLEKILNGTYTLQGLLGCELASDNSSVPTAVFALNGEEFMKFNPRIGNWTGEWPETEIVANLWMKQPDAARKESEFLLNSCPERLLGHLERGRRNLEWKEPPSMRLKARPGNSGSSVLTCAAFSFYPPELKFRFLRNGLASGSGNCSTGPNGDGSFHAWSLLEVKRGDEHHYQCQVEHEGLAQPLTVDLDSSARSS
T1 sequence 2: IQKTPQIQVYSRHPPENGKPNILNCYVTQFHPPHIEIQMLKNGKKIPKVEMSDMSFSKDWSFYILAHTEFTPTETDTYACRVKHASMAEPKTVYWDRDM

[2] = target: T2, recombinant human FcRn (human, UniProt P55899 24-297; P61769 21-119); experiment: SPR (Biacore T200), human FcRn immobilised on CM5 chip
T2 construct: also called human FcRn receptor
T2 sequence (P55899 24-297 limits assumed, chain 1 of 2): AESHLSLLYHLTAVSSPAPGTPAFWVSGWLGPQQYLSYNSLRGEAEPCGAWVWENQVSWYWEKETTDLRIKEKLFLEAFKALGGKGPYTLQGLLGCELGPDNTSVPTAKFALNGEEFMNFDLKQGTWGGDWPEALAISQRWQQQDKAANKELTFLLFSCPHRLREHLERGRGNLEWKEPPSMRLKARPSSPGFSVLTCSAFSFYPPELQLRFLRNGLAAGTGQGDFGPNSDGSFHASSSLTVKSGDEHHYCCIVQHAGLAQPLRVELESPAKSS
T2 sequence (P61769 21-119 limits assumed, chain 2 of 2): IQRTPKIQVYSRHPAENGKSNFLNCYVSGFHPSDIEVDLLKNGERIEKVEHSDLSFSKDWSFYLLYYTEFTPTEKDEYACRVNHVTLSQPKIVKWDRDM

[3] = target: T3, Recombinant human HPC4-tagged FcγRIIIa-V158 (human, UniProt P08637 17-208); experiment: SPR (Biacore 3000), HPC4-tagged FcγRIIIa-V158 captured on anti-HPC4 CM5 chip, antibody injected 2 min, in duplicate; concentration (900, 300 or 100 nM in the methods) not printed on the sheet
T3 construct: Valine at 158 is a polymorphism, named without an old residue; also called Val158; not shown: HPC4 tag
T3 sequence (P08637 17-208 F176V): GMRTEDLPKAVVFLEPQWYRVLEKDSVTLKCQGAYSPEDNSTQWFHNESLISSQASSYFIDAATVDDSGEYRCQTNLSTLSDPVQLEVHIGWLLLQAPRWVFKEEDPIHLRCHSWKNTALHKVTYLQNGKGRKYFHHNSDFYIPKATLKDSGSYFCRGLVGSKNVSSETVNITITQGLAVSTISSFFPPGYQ

[4] = target: T4, Recombinant human HPC4-tagged FcγRIII-F158 (human, UniProt P08637 17-208); experiment: SPR (Biacore 3000), HPC4-tagged FcγRIII-F158 captured on anti-HPC4 CM5 chip, antibody injected 2 min, in duplicate; concentration (900, 300 or 100 nM in the methods) not printed on the sheet
T4 construct: also called FcγRIIIaF158; not shown: HPC4 tag
T4 sequence (P08637 17-208): as the sequence (P08637 17-208 F176V) above, with V160F counted along it

[5] = target: T1, recombinant mouse FcRn; experiment: SPR (Biacore T200), mouse FcRn immobilised on CM5 chip
[6] = target: T2, recombinant human FcRn; experiment: SPR, human FcRn immobilised; relative to mAb2
[7] = target: T5, His-tagged CHIKV E2 SL15649 (Chikungunya virus strain SL15649, UniProt Q8JUX5 326-1220); experiment: SPR, His-tagged antigen captured
T5 construct: also called CHIKV pE2-E1 antigen derived from CHIKV strain SL15649; pE2-E1 target

[8] = target: T6, His-tagged CHIKV E2 LR2006 (Chikungunya virus strain LR2006, UniProt Q8JUX5 326-1220); experiment: SPR, His-tagged antigen captured
T6 construct: also called CHIKV pE2-E1 antigen derived from CHIKV strain LR2006; pE2-E1 target

[9] = target: Antigen (E2) (Chikungunya virus); experiment: SPR (Biacore T200), His-tagged antigen captured by anti-His antibody, 1:1 model
[10] = target: T6, His-tagged CHIKV E2 LR2006
[11] = target: T5, His-tagged CHIKV E2 SL15649; experiment: SPR, His-tagged antigen captured (example 3, FIG. 5)
[12] = target: T6, His-tagged CHIKV E2 LR2006; experiment: as above
[13] = target: T7, CHIKV 37997 strain, West African lineage (envelope protein E2 on virus) (Chikungunya virus); experiment: cell-based or functional assay
[14] = target: T8, CHIKV Caribbean strain, Asian lineage (envelope protein E2 on virus) (Chikungunya virus); experiment: cell-based or functional assay
[15] = target: T9, CHIKV La Reunion (LR) strain, ECSA lineage (envelope protein E2 on virus) (Chikungunya virus); experiment: cell-based or functional assay
[16] = target: T3, Recombinant human HPC4-tagged …; experiment: SPR (Biacore 3000), HPC4-tagged FcγRIIIa-V158 captured on anti-HPC4 CM5 chip, antibody injected 2 min, in duplicate; concentration (900, 300 or 100 nM in the methods) not printed on the sheet; remark: listed apart in the source
[17] = target: T1, recombinant mouse FcRn; experiment: SPR (Biacore T200), mouse FcRn immobilised on CM5 chip; remark: listed apart in the source
[18] = target: T2, recombinant human FcRn; experiment: SPR (Biacore T200), human FcRn immobilised on CM5 chip; remark: listed apart in the source
[19] = target: T2, recombinant human FcRn; experiment: SPR, human FcRn immobilised; relative to mAb1
[20] = target: T7, CHIKV 37997 strain, West African …; experiment: cell-based or functional assay; remark: listed apart in the source
[21] = target: T8, CHIKV Caribbean strain, Asian lineage …; experiment: cell-based or functional assay; remark: listed apart in the source
[22] = target: T9, CHIKV La Reunion (LR) strain, ECSA …; experiment: cell-based or functional assay; remark: listed apart in the source
[23] = target: T1, recombinant mouse FcRn; experiment: SPR, mouse FcRn immobilised; relative to mAb1
[24] = target: T4, Recombinant human HPC4-tagged …; experiment: SPR (Biacore 3000), HPC4-tagged FcγRIII-F158 captured on anti-HPC4 CM5 chip, antibody injected 2 min, in duplicate; concentration (900, 300 or 100 nM in the methods) not printed on the sheet; remark: listed apart in the source
[25] = target: Antigen (E2) (Chikungunya virus); experiment: SPR (Biacore T200), His-tagged antigen captured by anti-His antibody, 1:1 model; remark: listed apart in the source

B1: mAb8 (antibody)
heavy: QVQLVQSGAEVKKPGASVKVSCKVSGYILSKLSVHWVRQAPGKGLEWMGGSEREDGETVYAQKFQGRISLTEDTSIETAYMELSSLSSEDTAVYYCATGGFWSMIGGNGVDYWGQGTLVTVSSASTKGPSVFPLAPSSKSTSGGTAALGCLVKDYFPEPVTVSWNSGALTSGVHTFPAVLQSSGLYSLSSVVTVPSSSLGTQTYICNVNHKPSNTKVDKKVEPKSCDKTHTCPPCPAPELLGGPSVFLFPPKPKDTLYITREPEVTCVVVDVSHEDPEVKFNWYVDGVEVHNAKTKPREEQYNSTYRVVSVLTVLHQDWLNGKEYKCKVSNKALPAPIEKTISKAKGQPREPQVYTLPPSRDELTKNQVSLTCLVKGFYPSDIAVEWESNGQPENNYKTTPPVLDSDGSFFLYSKLTVDKSRWQQGNVFSCSVMHEALHNHYTQKSLSLSPG
light: QAVVTQSPSSLPASVGDRVTITCRASQDIRNNLGWYQQKPGKAPERLIYGTSNLQSGVPSRFSGSGSGTEFTLTISSLQPEDFATYYCLQHNSYPPTFGRGTKVEIKRTVAAPSVFIFPPSDEQLKSGTASVVCLLNNFYPREAKVQWKVDNALQSGNSQESVTEQDSKDSTYSLSSTLTLSKADYEKHKVYACEVTHQGLSSPVTKSFNRGEC
notes: also called mAb2YTE
For B1, the “Affinity Increase (fold)” value [1] was 19.5 fold, the Kd [2] was 23 nM and the binding result [3] was “binds”. For the same binder, the binding result [4] was “binds”, the Kd [5] was 1.2 nM and the “Affinity Increase (fold)” value [6] was 14.1 fold. B1: binds [7]; binds [8].

B2: mAb11 (antibody)
heavy: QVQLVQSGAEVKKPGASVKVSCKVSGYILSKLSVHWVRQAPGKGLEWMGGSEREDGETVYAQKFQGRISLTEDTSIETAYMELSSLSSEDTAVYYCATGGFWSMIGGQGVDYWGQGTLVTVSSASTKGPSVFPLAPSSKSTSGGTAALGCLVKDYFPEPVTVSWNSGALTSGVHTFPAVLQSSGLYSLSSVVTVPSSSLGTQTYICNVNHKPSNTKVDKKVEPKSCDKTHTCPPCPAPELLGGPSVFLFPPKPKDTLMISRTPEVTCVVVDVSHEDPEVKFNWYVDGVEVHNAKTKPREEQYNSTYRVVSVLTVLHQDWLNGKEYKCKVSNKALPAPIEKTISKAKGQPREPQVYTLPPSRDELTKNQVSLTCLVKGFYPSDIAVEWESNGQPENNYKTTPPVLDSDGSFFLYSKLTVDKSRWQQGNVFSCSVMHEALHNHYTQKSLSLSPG
light: B1 light
notes: also called mAb2N108Q; mAb2 N108Q
In the case of B2, the “Affinity Increase (fold)” value [1] is reported as 1.1 fold, the Kd [2] is reported as 301 nM and the Kd [9] is reported as 0.22 nM. The binding result [3] was “binds”, the binding result [4] was “binds” and the Kd [5] was 20 nM. The “Affinity Increase (fold)” value [6] was 1.1 fold and the binding result [10] was “binds”.

B3: mAb14 (antibody)
heavy: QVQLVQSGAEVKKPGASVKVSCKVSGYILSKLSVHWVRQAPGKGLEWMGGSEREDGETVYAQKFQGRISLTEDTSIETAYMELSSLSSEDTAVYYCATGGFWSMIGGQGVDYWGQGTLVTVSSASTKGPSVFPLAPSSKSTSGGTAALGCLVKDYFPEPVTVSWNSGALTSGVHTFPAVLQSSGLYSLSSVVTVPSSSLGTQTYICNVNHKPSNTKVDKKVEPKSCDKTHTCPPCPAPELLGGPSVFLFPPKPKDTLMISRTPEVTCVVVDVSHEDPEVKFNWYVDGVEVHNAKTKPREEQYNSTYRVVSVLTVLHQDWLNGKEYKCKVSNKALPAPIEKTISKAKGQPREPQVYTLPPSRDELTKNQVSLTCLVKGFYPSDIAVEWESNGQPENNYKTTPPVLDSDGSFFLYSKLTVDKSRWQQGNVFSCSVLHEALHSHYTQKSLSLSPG
light: B1 light
notes: also called mAb2N108QLS
For B3, the “Affinity Increase (fold)” value [1] was 3.6 fold, the Kd [2] was 18 nM and the binding result [11] was “binds”. The binding result [12] was “binds”, the Kd [9] was 0.12 nM and the binding result [3] was “binds”. The binding result [4] was “binds”, the Kd [5] was 6.2 nM and the “Affinity Increase (fold)” value [6] was 18.2 fold.

B4: mAb9 (antibody)
heavy: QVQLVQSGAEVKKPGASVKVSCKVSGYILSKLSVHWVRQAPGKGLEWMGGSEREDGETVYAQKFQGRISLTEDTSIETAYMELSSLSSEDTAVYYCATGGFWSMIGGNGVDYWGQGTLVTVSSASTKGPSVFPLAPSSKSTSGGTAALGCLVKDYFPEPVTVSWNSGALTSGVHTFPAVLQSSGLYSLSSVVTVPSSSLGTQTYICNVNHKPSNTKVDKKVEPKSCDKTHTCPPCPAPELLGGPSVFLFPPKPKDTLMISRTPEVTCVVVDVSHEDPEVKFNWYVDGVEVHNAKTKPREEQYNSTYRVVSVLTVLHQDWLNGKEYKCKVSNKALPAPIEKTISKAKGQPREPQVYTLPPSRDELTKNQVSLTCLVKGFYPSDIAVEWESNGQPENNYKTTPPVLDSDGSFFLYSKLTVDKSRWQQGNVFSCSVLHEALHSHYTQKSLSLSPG
light: B1 light
notes: also called mAb2LS
In the case of B4, the “Affinity Increase (fold)” value [1] is reported as 3 fold, the Kd [2] is reported as 20 nM and the Kd [9] is reported as 0.25 nM. For the same binder, the binding result [3] was “binds”, the binding result [4] was “binds” and the Kd [5] was 7.5 nM. The “Affinity Increase (fold)” value [6] was 16.6 fold, the binding result [7] was “binds” and the binding result [8] was “binds”.

B5: mAb13 (antibody)
heavy: B1 heavy with N108Q
light: B1 light
notes: also called mAb2N108QYTE
In the case of B5, the “Affinity Increase (fold)” value [1] is reported as 13.7 fold, the Kd [2] is reported as 24 nM and the binding result [11] is reported as “binds”. B5: binds [12]; binds [3]; binds [4]. For the same binder, the Kd [5] was 1.6 nM and the “Affinity Increase (fold)” value [6] was 13.7 fold.

B6: mAb1 (antibody)
heavy: not shown
light: QAVVTQPPSVSGAPGQRVTISCTGSSSNIGADYNVHWYQLLPGTAPKLLIYGNTNRPSGVPDRFSGSKSGTSASLAITGLQAEDEADYYCQSYDSSLSASVFGGGTKLTVLGQPKAAPSVTLFPPSSEELQANKATLVCLISDFYPGAVTVAWKADSSPVKAGVETTTPSKQSNNKYAASSYLSLTPEQWKSHRSYSCQVTHEGSTVEKTVAPTECS
notes: also called parent antibody mAb1
With B6 the “EC50, plaque reduction neutralization” value [13] was less than 10 ng/mL, the “EC50, plaque reduction neutralization” value [14] was less than 10 ng/mL and the “EC50, plaque reduction neutralization” value [15] was less than 10 ng/mL. The binding result [16] was “binds”, the Kd [17] was 20 nM and the Kd [18] was 348 nM. For the same binder, the “Affinity Increase (fold)” value [19] was 1 fold, the “In vitro neutralization - EC50 (ng/ml), plaque reduction assay on Vero cells” value [20] was 4.8 ng/mL and the “In vitro neutralization - EC50 (ng/ml), plaque reduction assay on Vero cells” value [21] was 7.6 ng/mL. The “In vitro neutralization - EC50 (ng/ml), plaque reduction assay on Vero cells” value [22] was 3.9 ng/mL, the “Affinity Increase (fold)” value [23] was 1 fold and the binding result [24] was “binds”. The Kd [25] was 0.13 nM.

B7: mAb7 (antibody)
heavy: not shown
light: B6 light
notes: also called mAb1LS
In the case of B7, the “EC50, plaque reduction neutralization” value [13] is reported as less than 1 ng/mL, the “EC50, plaque reduction neutralization” value [14] is reported as less than 1 ng/mL and the “EC50, plaque reduction neutralization” value [15] is reported as less than 1 ng/mL. The binding result [16] was “binds”, the Kd [17] was 5.9 nM and the Kd [18] was 15 nM. For the same binder, the “Affinity Increase (fold)” value [19] was 23.8 fold, the “In vitro neutralization - EC50 (ng/ml), plaque reduction assay on Vero cells” value [20] was 0.2 ng/mL and the “In vitro neutralization - EC50 (ng/ml), plaque reduction assay on Vero cells” value [21] was 0.6 ng/mL. For the same binder, the “In vitro neutralization - EC50 (ng/ml), plaque reduction assay on Vero cells” value [22] was 0.3 ng/mL, the “Affinity Increase (fold)” value [23] was 3.4 fold and the binding result [24] was “binds”. The Kd [25] was 0.17 nM.
